From patent publication US20130136748A1 (Ablynx, published 2013)
Numbering of substitutions follows the chain as printed. Names and notes keep the numbering of the source. Values joined by “and” are separate entries in the source; they are usually repeats but may differ in a detail not shown here. Equal values may be shown once. Read-outs that look alike come from different tables or passages of the source. Blank lines part the entries; values can stand above or below the molecule they belong to.

Legend:
[1] = molecular target: T1, human HER1 (human, UniProt P00533 25-1210); assay: FACS CHO-HER1, 5 µg/ml
T1 construct: also called EGFR; ErbB1

[2] = molecular target: T2, human HER2 (human, UniProt P04626 23-1255); assay: FACS CHO-HER2, 5 µg/ml
T2 construct: also called hHER2

[3] = molecular target: T3, human HER4 (human, UniProt Q15303 26-1308); assay: FACS CHO-HER4, 5 µg/ml
[4] = molecular target: T4, hHER3 full length (human, UniProt P21860 20-1342); assay: cell-based or functional assay
[5] = molecular target: T5, hHER3 ECD (human HER3 extracellular domain) (human, UniProt P21860 20-643); assay: SPR off rate on HER3-ECD
T5 construct: also called recombinant HER3-ECD

[6] = molecular target: T6, human HER3-Fc (R&D Systems, 348-RB) (human, UniProt P21860 20-643); assay: 34C07 competition alphascreen
T6 construct: Bought; also called hHER3-Fc; Fc-HER3; Fc part of the bought chimera not given, not described

[7] = molecular target: T1, human HER1; assay: FACS, CHO-HER1
[8] = molecular target: T2, human HER2; assay: FACS, CHO-HER2
[9] = molecular target: T3, human HER4; assay: FACS, CHO-HER4
[10] = molecular target: T1, human HER1; assay: FACS CHO-HER1, 222 nM
[11] = molecular target: T1, human HER1; assay: FACS CHO-HER1, 667 nM
[12] = molecular target: T2, human HER2; assay: FACS CHO-HER2, 222 nM
[13] = molecular target: T2, human HER2; assay: FACS CHO-HER2, 667 nM
[14] = molecular target: T3, human HER4; assay: FACS CHO-HER4, 222 nM
[15] = molecular target: T3, human HER4; assay: FACS CHO-HER4, 667 nM
[16] = molecular target: T1, human HER1; assay: FACS CHO-HER1, 2000 nM
[17] = molecular target: T2, human HER2; assay: FACS CHO-HER2, 2000 nM
[18] = molecular target: T3, human HER4; assay: FACS CHO-HER4, 2000 nM
[19] = molecular target: T4, hHER3 full length; assay: cell-based or functional assay; remark: listed apart in the source
[20] = molecular target: T4, hHER3 full length; assay: cell-based or functional assay; remark: listed apart in the source
[21] = molecular target: T4, hHER3 full length; assay: cell-based or functional assay; remark: listed apart in the source
[22] = molecular target: T4, hHER3 full length; assay: cell-based or functional assay; remark: listed apart in the source
[23] = molecular target: T5, hHER3 ECD (human HER3 extracellular …); assay: ELISA, coated hHER3-ECD
[24] = molecular target: T7, cHER3ECD (Maccaca fascicularis HER3 extracellular domain) (Macaca fascicularis, UniProt P21860 20-643 (human entry)); assay: ELISA, coated cHER3-ECD
T7 construct: also called cyno HER3ECD; cyno HER3-ECD
T7 chain: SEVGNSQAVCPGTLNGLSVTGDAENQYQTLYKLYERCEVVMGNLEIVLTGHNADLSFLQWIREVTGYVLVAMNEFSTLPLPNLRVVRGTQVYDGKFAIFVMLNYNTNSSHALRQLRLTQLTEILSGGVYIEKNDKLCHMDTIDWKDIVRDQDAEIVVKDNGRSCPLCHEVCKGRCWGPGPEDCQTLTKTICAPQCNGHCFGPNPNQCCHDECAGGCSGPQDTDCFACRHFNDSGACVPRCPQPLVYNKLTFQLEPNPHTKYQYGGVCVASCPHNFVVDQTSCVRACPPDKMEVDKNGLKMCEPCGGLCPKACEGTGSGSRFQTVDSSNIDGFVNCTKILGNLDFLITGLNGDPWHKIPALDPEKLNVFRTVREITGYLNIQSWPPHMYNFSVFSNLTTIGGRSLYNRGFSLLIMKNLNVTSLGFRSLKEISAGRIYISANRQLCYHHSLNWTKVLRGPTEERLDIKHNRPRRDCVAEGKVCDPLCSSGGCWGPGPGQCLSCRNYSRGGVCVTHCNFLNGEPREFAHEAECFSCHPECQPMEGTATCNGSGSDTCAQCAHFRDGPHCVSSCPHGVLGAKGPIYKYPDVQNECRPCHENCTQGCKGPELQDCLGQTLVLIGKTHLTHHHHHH

[25] = molecular target: T5, hHER3 ECD (human HER3 extracellular …); assay: SPR off rate on HER3-ECD; remark: listed apart in the source
[26] = molecular target: T5, hHER3 ECD (human HER3 extracellular …); assay: SPR off rate on HER3-ECD; remark: listed apart in the source
[27] = molecular target: T6, human HER3-Fc (R&D Systems, 348-RB); assay: HRG competition alphascreen
[28] = molecular target: T6, human HER3-Fc (R&D Systems, 348-RB); assay: HRG competition alphascreen; remark: listed apart in the source
[29] = molecular target: T6, human HER3-Fc (R&D Systems, 348-RB); assay: HRG competition alphascreen; remark: listed apart in the source
[30] = molecular target: T6, human HER3-Fc (R&D Systems, 348-RB); assay: SPR, HER3-Fc captured by anti-Fc
[31] = molecular target: T4, hHER3 full length; assay: FACS, 400 nM, competitor 04C07-biotin
[32] = molecular target: T4, hHER3 full length; assay: FACS, 400 nM, competitor 04F10-biotin
[33] = molecular target: T4, hHER3 full length; assay: FACS, 400 nM, competitor 17C08-biotin
[34] = molecular target: T4, hHER3 full length; assay: FACS, 400 nM, competitor 18E08-biotin
[35] = molecular target: T4, hHER3 full length; assay: FACS, 400 nM, competitor 21B02-biotin
[36] = molecular target: T4, hHER3 full length; assay: FACS, 400 nM, competitor 23F05-biotin
[37] = molecular target: T4, hHER3 full length; assay: FACS competition with HRG1-β1-EGF, CHO-HER3

T3 sequence (Q15303 26-1308 limits assumed): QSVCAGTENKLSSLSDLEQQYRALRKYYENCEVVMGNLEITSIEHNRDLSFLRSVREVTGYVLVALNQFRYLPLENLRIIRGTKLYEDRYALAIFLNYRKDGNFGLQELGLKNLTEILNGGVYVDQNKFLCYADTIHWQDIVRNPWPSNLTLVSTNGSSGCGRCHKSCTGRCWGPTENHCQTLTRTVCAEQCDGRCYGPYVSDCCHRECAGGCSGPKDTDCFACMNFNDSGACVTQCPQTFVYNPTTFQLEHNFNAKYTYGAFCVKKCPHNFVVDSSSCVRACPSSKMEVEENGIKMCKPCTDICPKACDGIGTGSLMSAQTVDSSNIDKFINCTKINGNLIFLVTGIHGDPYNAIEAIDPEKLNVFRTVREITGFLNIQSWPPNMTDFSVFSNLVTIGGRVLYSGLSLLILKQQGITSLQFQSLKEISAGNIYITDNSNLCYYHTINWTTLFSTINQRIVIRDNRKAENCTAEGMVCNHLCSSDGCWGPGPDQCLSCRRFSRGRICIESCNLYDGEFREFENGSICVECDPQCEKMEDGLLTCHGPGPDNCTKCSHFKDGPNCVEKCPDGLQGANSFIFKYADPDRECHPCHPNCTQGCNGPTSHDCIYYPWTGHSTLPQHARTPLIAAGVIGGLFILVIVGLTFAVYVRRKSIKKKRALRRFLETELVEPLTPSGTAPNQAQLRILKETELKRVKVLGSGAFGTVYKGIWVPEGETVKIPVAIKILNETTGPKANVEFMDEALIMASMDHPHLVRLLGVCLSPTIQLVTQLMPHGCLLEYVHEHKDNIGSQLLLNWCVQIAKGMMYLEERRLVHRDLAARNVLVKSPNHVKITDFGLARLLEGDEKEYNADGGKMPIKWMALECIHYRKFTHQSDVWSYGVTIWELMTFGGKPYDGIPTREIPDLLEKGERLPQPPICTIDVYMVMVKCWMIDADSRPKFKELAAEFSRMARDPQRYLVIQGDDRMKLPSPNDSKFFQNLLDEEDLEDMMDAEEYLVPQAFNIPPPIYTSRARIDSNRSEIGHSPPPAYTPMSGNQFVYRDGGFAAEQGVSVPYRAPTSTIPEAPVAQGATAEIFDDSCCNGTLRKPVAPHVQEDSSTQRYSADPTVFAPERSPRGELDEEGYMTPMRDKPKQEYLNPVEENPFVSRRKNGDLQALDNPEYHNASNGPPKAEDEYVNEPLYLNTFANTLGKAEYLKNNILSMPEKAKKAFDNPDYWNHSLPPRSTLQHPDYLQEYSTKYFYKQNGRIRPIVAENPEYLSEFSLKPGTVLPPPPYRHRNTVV

Molecule: Anti-HER1 pAb (R&D Systems AF231) (antibody)
- MCF [1]: 28200
- MCF [2]: 888
- MCF [3]: 418

Molecule: Anti-HER2 pAb (R&D Systems AF1129) (antibody)
- MCF [1]: 323
- MCF [2]: 41000
- MCF [3]: 578

Molecule: Anti-HER4 pAb (R&D Systems AF1131) (antibody)
- MCF [1]: 584
- MCF [2]: 932
- MCF [3]: 17000

B1: HER3MS00123 (VHH)
VHH: EVQLVESGGGLVQPGGSLRLSCAASGSIFRINAMAWYRQAPGKQRELVAEITAGGSTNYADSVKGRFTISRDNSWNTLYLQMNSLRPEDTAVYYCNLDHYTTWDRRSAYWGQGTLVTVSS
- IC50 pHER3 blocking, MCF7 [4]: 3.09e-08 M
- koff [5]: 0.00046 s⁻¹
- IC50 [6]: 7.6 nM

B5: 17B05 (VHH)
VHH: EVQLVESGGGLVQPGGSLRLSCAASGSIGGLNAMAWYRQAPGKERELVAGIFGVGSTRYADSVKGRFTISRDIAKNTVFLQMNSLNSEDTAVYYCRMSSVTRGSSDYWGQGTQVTVSS
notes: also called HER3MS17B05; HER3MS017B05
- binding result [7]: no binding (tested: 2000 nM)
- binding result [8]: no binding (tested: 2000 nM)
- binding result [9]: no binding (tested: 2000 nM)
- MCF [10]: 85
- MCF [11]: 64
- MCF [12]: 84
- MCF [13]: 86
- MCF [14]: 142
- MCF [15]: 90
- MCF [16]: 49
- MCF [17]: 134
- MCF [18]: 116
- IC50, HRG1-β1 induced pHER3, MCF-7 [19]: 5.34e-09 M
- IC50, HRG1-β1 induced pHER3, MDA-MB468 [19]: 2.79e-08 M
- IC50, HRG1-β1 induced pAkt, MCF-7 [20]: 7.83e-09 M
- IC50, HRG1-β1 induced pERK1/2, MCF-7 [20]: 2.36e-09 M
- IC50, EGF induced pHER3, CHO EGFR/HER3 [21]: 3.43e-10 M
- IC50, TGFα induced pHER3, CHO EGFR/HER3 [21]: 8.15e-10 M
- IC50, epiregulin induced pHER3, CHO EGFR/HER3 [21]: 2.48e-10 M
- IC50 pHER3 blocking, HRG stimulated MCF7 [22]: 4.52e-09 M
- EC50 [23]: 0.63 nM
- EC50 [24]: 0.66 nM
- koff [25]: 0.00018 s⁻¹ and 0.0002 s⁻¹
- koff [26]: 0.00018 s⁻¹ and 0.0002 s⁻¹
- % inhibition [27]: 87%
- IC50 [27]: 0.755 nM
- IC50 [28]: 0.34 nM and 0.93 nM
- IC50 [29]: 0.78 nM
- Kd [30]: 0.11 nM
- kon [30]: 390000 M⁻¹ s⁻¹
- % competition [31]: 100%
- % competition [32]: 68%
- % competition [33]: 0%
- % competition [34]: 0%
- % competition [35]: 0%
- % competition [36]: 0%
- IC50 [37]: 33.4 nM

Results, then the molecule that gave them:

- IC50 pHER3 blocking, MCF7 [4]: 4.05e-08 M
- koff [5]: 0.00046 s⁻¹
- IC50 [6]: 6.7 nM
B2: HER3MS00128 (VHH)
VHH: B1 VHH with E1D, P87A

- IC50 pHER3 blocking, MCF7 [4]: 3.88e-08 M
- koff [5]: 0.00046 s⁻¹
- IC50 [6]: 8.5 nM
B3: HER3MS00127 (VHH)
VHH: B1 VHH with E1D

- IC50 pHER3 blocking, MCF7 [4]: 3.05e-08 M
- koff [5]: 0.00045 s⁻¹
- IC50 [6]: 7.1 nM
B4: HER3MS00124 (VHH)
VHH: B1 VHH with P87A

- IC50 pHER3 blocking, HRG stimulated MCF7 [22]: 1.7e-09 M
- koff [26]: 0.00018 s⁻¹
- IC50 [29]: 0.79 nM
B6: HER3MS00119 (VHH)
VHH: B5 VHH with I73N, A74S, F79Y, N86R, S87P, Q113L
notes: 17B05 second round, S84P (final variant); also called HER3MS0119

- IC50 pHER3 blocking, HRG stimulated MCF7 [22]: 3.53e-09 M
- koff [26]: 0.00018 s⁻¹
- IC50 [29]: 0.55 nM
B7: HER3MS00121 (VHH)
VHH: B5 VHH with E1D, I73N, A74S, F79Y, N86R, S87P, Q113L
notes: 17B05 second round, E1D, S84P (final variant for N-terminal use); also called HER3MS0121

- IC50 pHER3 blocking, HRG stimulated MCF7 [22]: 2.69e-09 M
- koff [26]: 0.00018 s⁻¹
- IC50 [29]: 0.6 nM
B8: HER3MS00118 (VHH)
VHH: B5 VHH with I73N, A74S, F79Y, N86R, S87A, Q113L
notes: 17B05 second round, S84A; also called HER3MS0118

- IC50 pHER3 blocking, HRG stimulated MCF7 [22]: 4.28e-09 M
- koff [26]: 0.00019 s⁻¹
- IC50 [29]: 0.75 nM
B9: HER3MS00120 (VHH)
VHH: B5 VHH with E1D, I73N, A74S, F79Y, N86R, S87A, Q113L
notes: 17B05 second round, E1D, S84A; also called HER3MS0120
